What was measured:
[1] = molecular target: T1, Human butyrylcholinesterase (Homo sapiens, UniProt P06276); experiment: BLI
[2] = molecular target: T1, Human butyrylcholinesterase; experiment: SPR
[3] = molecular target: T1, Human butyrylcholinesterase; experiment: ELISA
human albumin = human albumin (Homo sapiens, UniProt P02768); experiment: affinity purification with mass spectrometry
Sequence of human albumin (P02768 25-609): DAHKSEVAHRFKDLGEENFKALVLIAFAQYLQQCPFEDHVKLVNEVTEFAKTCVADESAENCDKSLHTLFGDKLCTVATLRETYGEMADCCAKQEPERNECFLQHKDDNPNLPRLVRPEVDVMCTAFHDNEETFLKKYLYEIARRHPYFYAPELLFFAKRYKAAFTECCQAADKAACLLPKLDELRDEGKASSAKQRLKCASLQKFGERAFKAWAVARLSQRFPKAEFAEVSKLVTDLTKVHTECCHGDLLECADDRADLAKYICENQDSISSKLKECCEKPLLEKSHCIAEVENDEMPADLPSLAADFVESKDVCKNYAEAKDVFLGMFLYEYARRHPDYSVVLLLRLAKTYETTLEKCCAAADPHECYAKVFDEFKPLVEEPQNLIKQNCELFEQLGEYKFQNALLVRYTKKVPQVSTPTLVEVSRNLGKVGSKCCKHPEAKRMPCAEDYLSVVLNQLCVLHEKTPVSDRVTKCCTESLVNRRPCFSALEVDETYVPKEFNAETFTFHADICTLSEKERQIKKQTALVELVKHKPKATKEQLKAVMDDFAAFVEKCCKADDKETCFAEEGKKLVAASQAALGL

T1 sequence (P06276 29-602): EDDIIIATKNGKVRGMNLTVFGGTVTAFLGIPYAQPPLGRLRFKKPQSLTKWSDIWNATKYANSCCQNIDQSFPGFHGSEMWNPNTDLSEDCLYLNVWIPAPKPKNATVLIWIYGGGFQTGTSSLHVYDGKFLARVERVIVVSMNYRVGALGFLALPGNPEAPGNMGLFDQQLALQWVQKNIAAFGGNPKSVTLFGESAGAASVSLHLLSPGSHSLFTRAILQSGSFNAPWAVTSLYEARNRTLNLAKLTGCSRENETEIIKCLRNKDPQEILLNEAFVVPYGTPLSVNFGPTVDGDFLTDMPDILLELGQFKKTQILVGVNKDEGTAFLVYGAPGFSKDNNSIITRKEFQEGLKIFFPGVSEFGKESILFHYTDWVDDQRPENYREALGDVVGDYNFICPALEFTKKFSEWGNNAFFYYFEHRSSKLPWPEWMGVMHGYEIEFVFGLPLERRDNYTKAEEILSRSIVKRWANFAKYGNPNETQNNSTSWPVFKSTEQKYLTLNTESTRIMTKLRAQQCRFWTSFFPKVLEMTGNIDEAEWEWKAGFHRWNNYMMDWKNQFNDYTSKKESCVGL

Binder	kon [1]	Kd [2]	Kd [3]	binding result (human albumin)
mouse anti-HuBChE monoclonal antibody B2 12-1 (antibody, V domains shown) VH: EVQLQQSGPELVKPGASVKISCKASGYTFTDYSMHWVKLSHGKSLEWIGYIYPYNDDTDYNQKFKTKATLTVDSSSSITYLELRSLTSEDSAVYYCARSDGYSYYFDYWGQGTTLTVSS VL: DIVMTQSPATLSVTPGDRVSLSCRASQSISDYLHWYQQKSHESPRLLIKYASQSISGIPSRFSGGGSGSDFTLSINSVEPEDVGVYYCQNGHRFPLTFGAGTKLELK	800000 to 1.2e+06 M⁻¹ s⁻¹	0.14 nM	1.41 nM	–
mouse anti-HuBChE monoclonal antibody 11D8 (antibody, V domains shown) VH: QVQLQQSGAELARPGASVKLSCKASGYTFTSQWLQWVKQRPGQGLEWIGAIYPGDGDTRYTQKFKGKATLTADKSSSTAYMQLTNLAPEDSAVYYCARSSMDYWGQGTSVTVSS VL: DILLTQSPAILSVSPGERVRLSCRASQSCGTSIYWYQQRTNGSPRLLIMYASEPFSGIPSRFSGSGSGTDFTLSINSVESEDIADYYCQQSNSWPWTFGGGTRLEIK	–	0.9 nM	0.26 nM	binds

From paper PMC5095618 (Chemico-biological interactions, 2015)
